In patent US20110027907A1:

How the values were obtained:
[1] = target: TfR-IgA Fc fusion protein, Leu257Ala mutant (Homo sapiens (Human)) (UniProt P01876); assay: flow cytometry, FcαRI-Ig on CHOP cells expressing TfR-IgA Fc fusion
[2] = target: TfR-IgA Fc fusion protein, Leu256Ala mutant (Homo sapiens (Human)) (UniProt P01876); assay: as above
[3] = target: TfR-IgA Fc fusion protein, Leu258Ala mutant (Homo sapiens (Human)) (UniProt P01876); assay: as above
human serum IgA (human) = assay: BIAcore, human serum IgA on CM5 chip, SSL7 mutant as analyte
[4] = target: human serum complement factor C5 (human) (UniProt P01031); assay: cell-based or functional assay
Chain of human serum complement factor C5 (human) (P01031 19-673 limits assumed, chain 1 of 2): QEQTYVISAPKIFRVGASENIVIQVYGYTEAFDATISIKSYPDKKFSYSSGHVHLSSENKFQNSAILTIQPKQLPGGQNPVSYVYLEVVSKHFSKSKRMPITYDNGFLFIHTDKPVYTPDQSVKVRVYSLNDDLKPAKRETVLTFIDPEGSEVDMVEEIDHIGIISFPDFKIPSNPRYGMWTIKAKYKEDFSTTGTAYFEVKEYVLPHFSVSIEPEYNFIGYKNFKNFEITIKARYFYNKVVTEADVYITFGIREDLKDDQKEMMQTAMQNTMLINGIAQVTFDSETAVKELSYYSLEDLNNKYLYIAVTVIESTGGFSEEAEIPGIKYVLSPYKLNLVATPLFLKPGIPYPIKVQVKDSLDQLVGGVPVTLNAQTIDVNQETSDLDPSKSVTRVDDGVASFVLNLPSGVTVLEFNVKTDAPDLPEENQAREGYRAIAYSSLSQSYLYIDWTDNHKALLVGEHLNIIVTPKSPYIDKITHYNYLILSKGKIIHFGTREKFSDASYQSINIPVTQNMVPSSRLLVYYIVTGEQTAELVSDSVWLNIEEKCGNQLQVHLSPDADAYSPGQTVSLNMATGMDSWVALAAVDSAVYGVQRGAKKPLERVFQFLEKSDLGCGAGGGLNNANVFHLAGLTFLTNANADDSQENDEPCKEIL
Chain of human serum complement factor C5 (human) (P01031 678-1676 limits assumed, chain 2 of 2): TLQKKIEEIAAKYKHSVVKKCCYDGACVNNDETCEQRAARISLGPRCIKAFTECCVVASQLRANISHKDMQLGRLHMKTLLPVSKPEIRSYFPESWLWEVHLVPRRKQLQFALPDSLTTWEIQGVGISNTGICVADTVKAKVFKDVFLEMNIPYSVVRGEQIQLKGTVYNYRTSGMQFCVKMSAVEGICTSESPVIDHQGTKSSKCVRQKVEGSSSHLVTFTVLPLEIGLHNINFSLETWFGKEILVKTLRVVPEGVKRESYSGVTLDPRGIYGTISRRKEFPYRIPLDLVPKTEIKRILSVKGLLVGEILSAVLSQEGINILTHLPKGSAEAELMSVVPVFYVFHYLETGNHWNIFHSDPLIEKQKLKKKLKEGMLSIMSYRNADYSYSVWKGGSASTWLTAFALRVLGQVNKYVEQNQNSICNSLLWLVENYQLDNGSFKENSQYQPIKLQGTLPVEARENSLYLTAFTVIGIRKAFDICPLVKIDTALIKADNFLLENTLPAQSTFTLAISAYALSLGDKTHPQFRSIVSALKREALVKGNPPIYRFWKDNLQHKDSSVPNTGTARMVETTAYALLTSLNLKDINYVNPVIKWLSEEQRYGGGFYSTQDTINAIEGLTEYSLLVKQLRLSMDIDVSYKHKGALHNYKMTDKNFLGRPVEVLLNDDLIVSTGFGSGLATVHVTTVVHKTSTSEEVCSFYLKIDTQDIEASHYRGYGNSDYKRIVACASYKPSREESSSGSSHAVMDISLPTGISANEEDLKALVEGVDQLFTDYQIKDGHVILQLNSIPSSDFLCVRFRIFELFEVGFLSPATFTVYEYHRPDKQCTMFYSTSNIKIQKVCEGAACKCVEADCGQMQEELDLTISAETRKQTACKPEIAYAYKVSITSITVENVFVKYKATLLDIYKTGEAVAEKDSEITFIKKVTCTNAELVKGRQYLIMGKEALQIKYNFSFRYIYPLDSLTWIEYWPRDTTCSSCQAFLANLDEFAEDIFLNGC

[5] = target: TfR-IgA Fc fusion protein, Asn316Ala mutant (Homo sapiens (Human)) (UniProt P01876); assay: flow cytometry, biotinylated rSSL7 on CHOP cells expressing TfR-IgA Fc fusion
Chain of TfR-IgA Fc fusion protein, Asn316Ala mutant (Homo sapiens (Human)) (P01876 123-331 N197A limits assumed): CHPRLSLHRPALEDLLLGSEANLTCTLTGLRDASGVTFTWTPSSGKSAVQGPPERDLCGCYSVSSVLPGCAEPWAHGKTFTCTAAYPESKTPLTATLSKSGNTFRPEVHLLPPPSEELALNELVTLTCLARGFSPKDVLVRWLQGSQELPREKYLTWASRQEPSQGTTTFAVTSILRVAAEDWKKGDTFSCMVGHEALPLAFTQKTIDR

[6] = target: TfR-IgA Fc fusion protein, His317Ala mutant (Homo sapiens (Human)) (UniProt P01876); assay: as above
Chain of TfR-IgA Fc fusion protein, His317Ala mutant (Homo sapiens (Human)) (P01876 123-331 H198A limits assumed): as the sequence (P01876 123-331 N197A limits assumed) above, with A75N, H76A counted along it

[7] = target: TfR-IgA Fc fusion protein, Leu257Ala mutant (Homo sapiens (Human)) (UniProt P01876); assay: as above
[8] = target: TfR-IgA Fc fusion protein, Leu256Ala mutant (Homo sapiens (Human)) (UniProt P01876); assay: as above
[9] = target: TfR-IgA Fc fusion protein, Leu258Ala mutant (Homo sapiens (Human)) (UniProt P01876); assay: as above

Chain of TfR-IgA Fc fusion protein, Leu256Ala mutant (Homo sapiens (Human)) (P01876 123-331 L137A limits assumed): as the sequence (P01876 123-331 N197A limits assumed) above, with L15A, A75N counted along it
Chain of TfR-IgA Fc fusion protein, Leu258Ala mutant (Homo sapiens (Human)) (P01876 123-331 L139A limits assumed): as the sequence (P01876 123-331 N197A limits assumed) above, with L17A, A75N counted along it
Chain of TfR-IgA Fc fusion protein, Leu257Ala mutant (Homo sapiens (Human)) (P01876 123-331 L138A limits assumed): as the sequence (P01876 123-331 N197A limits assumed) above, with L16A, A75N counted along it

| Substance | Change (fold in KD against SSL7 wild-type) (human serum IgA (human)) [fold] | Kd (human serum IgA (human)) [nM] | other results |
| --- | --- | --- | --- |
| FcαRI-Ig (from UniProt P24071 22-227) (Fc fusion) | – | – | fold reduction of binding against WT IgA Fc [1]: 2.3 fold; fold reduction of binding against WT IgA Fc [2]: 3.3 fold; fold reduction of binding against WT IgA Fc [3]: > 100 fold |
| SSL7 mutant L79A | 91 | 100 | – |
| SSL7 mutant N38T | 35 | 38 | – |
| SSL7 mutant N83A | 4 | 4 | – |
| SSL7 mutant P82A | 35 | 39 | – |
| SSL7 mutant R44A | 3.2 | 3.6 | – |
| SSL7 wild-type (haemolysis assay of FIG. 9) | – | – | haemolysis at 2 µM, % of the maximum lysis [4]: 10%; inhibition of haemolysis at 2 µM [4]: 90% |
| recombinant SSL7 (GL1 S. aureus Greenlane), wild type | – | – | fold reduction of binding against WT IgA Fc [5]: 1.8 fold; fold reduction of binding against WT IgA Fc [6]: 1.2 fold; fold reduction of binding against WT IgA Fc [7]: 15.4 fold; fold reduction of binding against WT IgA Fc [8]: 11.5 fold; fold reduction of binding against WT IgA Fc [9]: 6.5 fold |
